T1: B-RCAL (BÜHLMANN recombinant calprotectin; His6-linker-S100A9-linker-S100A8)
T1 chain: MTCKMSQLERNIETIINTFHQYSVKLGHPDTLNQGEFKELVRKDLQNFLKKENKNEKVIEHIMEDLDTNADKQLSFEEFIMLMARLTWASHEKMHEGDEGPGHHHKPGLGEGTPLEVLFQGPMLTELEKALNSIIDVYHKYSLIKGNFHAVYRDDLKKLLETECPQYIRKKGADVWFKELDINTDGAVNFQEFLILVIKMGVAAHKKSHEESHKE

T2: B-RCAL (BÜHLMANN recombinant calprotectin; His6-linker-S100A9-linker-S100A8) (human)
T2 chain: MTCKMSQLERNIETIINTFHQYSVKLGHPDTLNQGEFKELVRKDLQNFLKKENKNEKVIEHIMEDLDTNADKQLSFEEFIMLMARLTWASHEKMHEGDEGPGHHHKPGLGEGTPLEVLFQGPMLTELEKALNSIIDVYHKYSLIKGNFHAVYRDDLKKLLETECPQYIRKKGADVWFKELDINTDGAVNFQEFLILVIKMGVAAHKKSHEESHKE


What was measured:
[1] = molecular target: T1, B-RCAL (BÜHLMANN recombinant …); assay: fluorescence polarisation; conditions: chain shown with the change, in the presence of calcium ions, three independent measurements
[2] = molecular target: T2, B-RCAL (BÜHLMANN recombinant …); assay: FP; conditions: modification not given

Binder | Kd [2] | also measured
RSPESVAFPMFQCHWYCG [peptide 3 isomer 1 (dumbbell shaped, double-bridged) C2S; C5S] | – | Kd ([1]; Cys3-Cys4 chemically bridged): 17.9 nM
RCPECVAFPMFQSHWYSG [peptide 3 isomer 1 (dumbbell shaped, double-bridged) C13S; C17S] | – | Kd ([1]; Cys1-Cys2 chemically bridged): 16.9 nM
RSPESVAFPMFQSHAYSG [W15A] | 24 nM | –
RSPESVAFAMFQSHWYSG [P9A] | 30 nM | –
RSPESVAFPMFQSHWYSA [G18A] | 31 nM | –
RSPASVAFPMFQSHWYSG [E4A] | 26 nM | –
